Data from patent US9708383 (Novo Nordisk, dated 2017).
*1 amine or outer side, *2 acyl side, *3 side chain or, on linkers, in order; H or OH if unused. Where no end group is shown, it is not given here. Side-chain parts run from the residue outwards. [ ]: non-standard residue; d: D form. The star is where a group is joined. 8‑(4-carboxyphenoxy)octanoyl = O=C(O)c1ccc(OCCCCCCCC(=O)*)cc1; Decanoyl(10-(4-HOOC-PhO)) = O=C(O)c1ccc(OCCCCCCCCCC(=O)*)cc1; γGlu = O=C(O)[C@H](CCC(=O)[*:2])N[*:1]; AEEA = NCCOCCOCC(=O)O; Aib = CC(C)(N)C(=O)O

Legend:
human GLP-1 receptor [1] = target: T1, human GLP-1 receptor (human, UniProt P43220 24-463); experiment: SPA, 2.0% vs 0.005% HSA
T1 construct: whole, on cells; Used as purified membranes of the transfected hamster cells, not whole cells; also called hGLP-1

human GLP-1 receptor [2] = target: T1, human GLP-1 receptor; experiment: SPA, displacement of 125I-GLP-1(7-36)NH2, 0.005% HSA

Row | Binder | ratio IC50 high HSA/IC50 low HSA (human GLP-1 receptor [1]) | IC50 (human GLP-1 receptor [2]) [µM]
1 | H[Aib]EGTFTSDVSK([AEEA-γGlu-AEEA-Decanoyl(10-(4-HOOC-PhO))])YLEEQAAK([AEEA-γGlu-AEEA-Decanoyl(10-(4-HOOC-PhO))])EFIAWLVQGRG [GLP-1 derivative of Example 90: [Aib8,Lys18,Glu22,Gln34]-GLP-1-(7-37)-peptide] | > 1 | < 1
2 | H[Aib]EGTFTSDVSK([AEEA-AEEA-γGlu-8‑(4-carboxyphenoxy)octanoyl])YLEEQAAK([AEEA-AEEA-γGlu-8‑(4-carboxyphenoxy)octanoyl])EFIAWLVQGRG [GLP-1 derivative of Example 87: [Aib8,Lys18,Glu22,Gln34]-GLP-1-(7-37)-peptide] | > 1 | < 1
